Reference: US20260232769A1 (WUXI BIOLOGICS IRELAND, published 2026)
Where a chain is given by its changes, count along the chain named. Like-named read-outs stand apart in the source and are kept apart here.

T1: IL-2Rβ/γc complex (intermediate affinity receptor) on primary human CD8+ T cells (human, UniProt P14784 27-551; P31785 23-369)
T1 sequence (looked up) 1: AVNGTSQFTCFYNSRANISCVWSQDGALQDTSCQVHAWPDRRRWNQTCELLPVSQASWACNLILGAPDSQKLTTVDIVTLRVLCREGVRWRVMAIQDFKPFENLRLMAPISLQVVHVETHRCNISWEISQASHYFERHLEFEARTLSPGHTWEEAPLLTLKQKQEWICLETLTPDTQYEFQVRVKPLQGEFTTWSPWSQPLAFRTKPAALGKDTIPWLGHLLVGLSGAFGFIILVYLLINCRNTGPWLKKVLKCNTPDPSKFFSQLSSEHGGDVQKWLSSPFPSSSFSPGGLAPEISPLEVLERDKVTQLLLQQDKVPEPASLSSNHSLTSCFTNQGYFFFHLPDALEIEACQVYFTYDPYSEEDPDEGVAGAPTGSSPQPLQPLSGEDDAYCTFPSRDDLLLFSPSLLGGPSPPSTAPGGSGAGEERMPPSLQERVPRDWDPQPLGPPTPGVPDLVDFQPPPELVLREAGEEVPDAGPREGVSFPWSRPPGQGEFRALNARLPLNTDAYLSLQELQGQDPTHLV
T1 sequence (looked up) 2: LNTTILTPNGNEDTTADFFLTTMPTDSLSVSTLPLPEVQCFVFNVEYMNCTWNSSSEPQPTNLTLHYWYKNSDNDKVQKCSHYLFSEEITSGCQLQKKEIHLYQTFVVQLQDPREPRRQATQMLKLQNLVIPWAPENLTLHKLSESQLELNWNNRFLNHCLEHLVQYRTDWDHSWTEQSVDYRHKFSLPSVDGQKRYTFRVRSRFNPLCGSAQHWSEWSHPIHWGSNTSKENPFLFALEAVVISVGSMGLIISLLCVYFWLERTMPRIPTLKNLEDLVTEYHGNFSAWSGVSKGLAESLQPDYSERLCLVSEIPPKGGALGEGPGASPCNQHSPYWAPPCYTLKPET

T2: IL-2Rα/β/γc complex (high affinity receptor) on human activated CD8+ T cells (human, UniProt P01589 22-272; P14784 27-551; P31785 23-369)
T2 sequence (looked up) 1: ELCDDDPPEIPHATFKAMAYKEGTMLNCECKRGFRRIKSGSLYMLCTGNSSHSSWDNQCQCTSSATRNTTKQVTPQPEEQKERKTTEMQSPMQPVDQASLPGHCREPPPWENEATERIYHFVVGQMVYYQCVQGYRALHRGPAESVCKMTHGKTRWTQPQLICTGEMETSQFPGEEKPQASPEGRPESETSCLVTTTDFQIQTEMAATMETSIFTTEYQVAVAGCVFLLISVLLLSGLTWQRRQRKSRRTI
T2 sequence (looked up) 2: T1 sequence (looked up) 1
T2 sequence (looked up) 3: T1 sequence (looked up) 2

B1: W3XX115-BMK8 (Fc fusion, part only; not given: Fab heavy and light chains, part only)
chain: APTSSSTKKTQLQLEHLRLDLEMILNGINNYKNPKLTRMLTFKFYMPKKATELKHLQCLEEELKPLEEVLNLAQSKNFHLRPRDLISNINVIVLELKGSETTFMCEYADETATIVEFLNRWITFCKSIISTLTESKYGPPCPPCPAPEFLGGPSVFLFPPKPKDTLMISRTPEVTCVVVDVSQEDPEVQFNWYVDGVEVHNAKTKPREEQFNSTYRVVSVLTVLHQDWLNGKEYKCKVSNKGLPSSIEKTISKAKGQPREPQVYTLPPCQEEMTKNQVSLWCLVKGFYPSDIAVEWESNGQPENNYKTTPPVLDSDGSFFLYSRLTVDKSRWQEGNVFSCSVMHEALHNHYTQKSLSLSLG
B2: W3XX115-T2U10.Z73-63.uIgG4V322 (Fc fusion)
chain 1: APTSSSTKKTQLQLEHLLLDLQMILNGINNYDNPKLTRMLTIKFYMPKKATELKHLQCLEEELKPLEEVLNLAQSKNFHLRPRDLISNINVIVLRLKGSETTFMCEYADETATIVEFLNRWITFCQSILESKYGPPCPPCPAPEAAGGPSVFLFPPKPKDTLMISRTPEVTCVVVDVSQEDPEVQFNWYVDGVEVHNAKTKPREEQFNSTYRVVSVLTVLHQDWLNGKEYKCKVSNKGLPSSIEKTISKAKGQPREPQVYTLPPCQEEMTKNQVSLWCLVKGFYPSDIAVEWESNGQPENNYKTTPPVLDSDGSFFLYSRLTVDKSRWQEGNVFSCSVMHEALHNHYTQKSLSLSLGK
chain 2: QVQLVESGGGVVQPGGSLRLSCAASDSIDSLVNMGWYRQAPGKQRELVALIATYITHYADFVKGRFTISRDNSKNTLYLQMNSLRAEDTAVYYCYARNIIVDYWGQGTLVTVSSGGGGSGGGGSGGGGSQVQLVESGGGVVQPGGSLRLSCAASDSIDSLVNMGWYRQAPGKQRELVALIATYITHYADFVKGRFTISRDNSKNTLYLQMNSLRAEDTAVYYCYARNIIVDYWGQGTLVTVSSESKYGPPCPPCPAPEAAGGPSVFLFPPKPKDTLMISRTPEVTCVVVDVSQEDPEVQFNWYVDGVEVHNAKTKPREEQFNSTYRVVSVLTVLHQDWLNGKEYKCKVSNKGLPSSIEKTISKAKGQPREPQVCTLPPSQEEMTKNQVSLSCAVKGFYPSDIAVEWESNGQPENNYKTTPPVLDSDGSFFLVSRLTVDKSRWQEGNVFSCSVMHEALHNHYTQKSLSLSLG
B3: W3XX115-T2U10.Z73-64.uIgG4V322 (Fc fusion)
chain 1: B2 chain 1 with R95E, N119R
chain 2: B2 chain 2
B4: W3XX115-T2U0.E44-48.uIgG4V322 (Fc fusion)
chain: APTSSSTKKTQLQLEHLLLDLQMILNGINNYKNPKLTRMLTFKFYMPKKATELKHLQCLEEELKPLEEVLNLAQSKNFHLRPRDLISNINVIVLELKGSETTFMCEYADETATIVEFLNRWYTFCQSILESKYGPPCPPCPAPEAAGGPSVFLFPPKPKDTLMISRTPEVTCVVVDVSQEDPEVQFNWYVDGVEVHNAKTKPREEQFNSTYRVVSVLTVLHQDWLNGKEYKCKVSNKGLPSSIEKTISKAKGQPREPQVYTLPPCQEEMTKNQVSLWCLVKGFYPSDIAVEWESNGQPENNYKTTPPVLDSDGSFFLYSRLTVDKSRWQEGNVFSCSVMHEALHNHYTQKSLSLSLG
heavy: EIQLQQSGPELVKPGASVKVSCKASGYSFTDYNMYWVKQSHGESLEWIGYIDPYNGGTRYNQKFKGKATLTVDKSSSTAFMHLNSLTSEDSAVYYCARNGHWDGAWFAYWGQGTLVTVSAASTKGPSVFPLAPCSRSTSESTAALGCLVKDYFPEPVTVSWNSGALTSGVHTFPAVLQSSGLYSLSSVVTVPSSSLGTKTYTCNVDHKPSNTKVDKRVESKYGPPCPPCPAPEAAGGPSVFLFPPKPKDTLMISRTPEVTCVVVDVSQEDPEVQFNWYVDGVEVHNAKTKPREEQFNSTYRVVSVLTVLHQDWLNGKEYKCKVSNKGLPSSIEKTISKAKGQPREPQVCTLPPSQEEMTKNQVSLSCAVKGFYPSDIAVEWESNGQPENNYKTTPPVLDSDGSFFLVSRLTVDKSRWQEGNVFSCSVMHEALHNHYTQKSLSLSLG
light: DIQMNQSPSSLSASLGDTITITCHASQNINVWLSWYQQKPGNIPKLLIYKASNLHTGVPSRFSGSRSGTGFTLTISSLQPEDIATYYCHQGQSYPFTFGSGTKLEIKRTVAAPSVFIFPPSDEQLKSGTASVVCLLNNFYPREAKVQWKVDNALQSGNSQESVTEQDSKDSTYSLSSTLTLSKADYEKHKVYACEVTHQGLSSPVTKSFNRGEC
B5: W3XX115-T2U0.E44-49.uIgG4V322 (Fc fusion)
chain: B4 chain with K32D, Y122I
heavy: B4 heavy
light: B4 light
B6: W3XX115-T2U3.E44-15.uIgG4V322 (Fc fusion)
chain: B2 chain 1 with D32K, I42V, R95E, L129I
heavy: QVQLVQSGAEVKKPGSSVKVSCKASGFTFTTYYISWVRQAPGQGLEYLGYINMGSGGTNYNEKFKGRVTITADKSTSTAYMELSSLRSEDTAVYYCAIIGYFDYWGQGTMVTVSSASTKGPSVFPLAPCSRSTSESTAALGCLVKDYFPEPVTVSWNSGALTSGVHTFPAVLQSSGLYSLSSVVTVPSSSLGTKTYTCNVDHKPSNTKVDKRVESKYGPPCPPCPAPEAAGGPSVFLFPPKPKDTLMISRTPEVTCVVVDVSQEDPEVQFNWYVDGVEVHNAKTKPREEQFNSTYRVVSVLTVLHQDWLNGKEYKCKVSNKGLPSSIEKTISKAKGQPREPQVCTLPPSQEEMTKNQVSLSCAVKGFYPSDIAVEWESNGQPENNYKTTPPVLDSDGSFFLVSRLTVDKSRWQEGNVFSCSVMHEALHNHYTQKSLSLSLGK
light: DVVMTQSPLSLPVTLGQPASISCRSSQSLLDSDGGTYLYWFQQRPGQSPRRLIYLVSTLGSGVPDRFSGSGSGTDFTLKISRVEAEDVGVYYCMQLTHWPYTFGQGTKLEIKRTVAAPSVFIFPPSDEQLKSGTASVVCLLNNFYPREAKVQWKVDNALQSGNSQESVTEQDSKDSTYSLSSTLTLSKADYEKHKVYACEVTHQGLSSPVTKSFNRGEC
B7: W3XX115-T2U3.E44-20.uIgG4V322 (Fc fusion)
chain: B2 chain 1 with D32K, R38W, I42F, R95E, L129I
heavy: B6 heavy
light: B6 light
B8: W3XX115-T2U3.E44-33.uIgG4V322 (Fc fusion)
chain: B2 chain 1 with D32K, R38W, I42F, R95E
heavy: B6 heavy
light: B6 light

Assays:
Assay in all cases: cell-based or functional assay
[1] = target: IL-2Rα/β/γc complex (high affinity receptor) on human activated CD8+ T cells (human) (UniProt P01589)
[2] = target: T1, IL-2Rβ/γc complex (intermediate …)
[3] = target: T1, IL-2Rβ/γc complex (intermediate …); remark: listed apart in the source
[4] = target: T2, IL-2Rα/β/γc complex (high affinity …)
[5] = target: T1, IL-2Rβ/γc complex (intermediate …); remark: listed apart in the source
[6] = target: T2, IL-2Rα/β/γc complex (high affinity …); remark: listed apart in the source
[7] = target: PD-1 (on CHO-PD1 engineered cell line; on activated CD8+ T cells) (UniProt Q15116 25-288, limits assumed)

Binder	Potency reduction, pSTAT5, human primary CD8+ T [5] [fold]	pSTAT5 EC50, human primary CD8+ T [5]	Potency reduction, pSTAT5, human activated CD8+ T (CD25 positive and PD-1 positive) [6] [fold]	pSTAT5 EC50, human activated CD8+ T (CD25 positive and PD-1 positive) [6] [nM]	PD-1+/PD-1- ratio (pSTAT5 potency, activated versus primary CD8+ T) [7] [fold]	further results
B1						Potency reduction, pSTAT5, human activated CD8+ T [1]: 7.2 fold; pSTAT5 EC50, human activated CD8+ T [1]: 0.12 nM
B2						Potency reduction, pSTAT5, human activated CD8+ T [2]: 2.5 fold
B3						Potency reduction, pSTAT5, human activated CD8+ T [2]: 58.7 fold
B4						Potency reduction, pSTAT5, human primary CD8+ T [3]: 2.7 fold; pSTAT5 EC50, human primary CD8+ T [3]: 300 nM; Potency reduction, pSTAT5, human activated CD8+ T [4]: 14.7 fold; pSTAT5 EC50, human activated CD8+ T [4]: 0.25 nM
B5						Potency reduction, pSTAT5, human primary CD8+ T [3]: 3.8 fold; pSTAT5 EC50, human primary CD8+ T [3]: 425 nM; Potency reduction, pSTAT5, human activated CD8+ T [4]: 22.2 fold; pSTAT5 EC50, human activated CD8+ T [4]: 0.38 nM
B6	132	1.87 µM	139	3.78	496	
B7	56.8	809 nM	44.3	1.21	669	
B8	26.2	373 nM	48.6	1.32	283	
